B1: SlCHS1 promoter E-box probe 3 (dsDNA)
DNA 1: TTTATACAGTTCTCTGCCCAAGTGTCTTTCTCTTTCTTGTTT
DNA 2: AAACAAGAAAGAGAAAGACACTTGGGCAGAGAACTGTATAAA
B2: SlCHS1 promoter E-box probe 1 (dsDNA)
DNA 1: AAGCCATTTTCTCTTCTTCACTTGCTAAAATTTGTATAATAT
DNA 2: ATATTATACAAATTTTAGCAAGTGAAGAAGAGAAAATGGCTT
B3: SlFLS promoter E-box probe 2 (dsDNA)
DNA 1: ATTATACATACAAAATATCAATTGCAAGCTCTGATTTTATGT
DNA 2: ACATAAAATCAGAGCTTGCAATTGATATTTTGTATGTATAAT
B4: SlCHS1 promoter E-box probe 2 (dsDNA)
DNA 1: CTAAAAAAGTTGCTCAAACACGTGAAGACTAGCTACCGCCTA
DNA 2: TAGGCGGTAGCTAGTCTTCACGTGTTTGAGCAACTTTTTTAG
B5: SlFLS promoter E-box probe 3 (dsDNA)
DNA 1: TAAAAAGCTGTTTATCAGCACTTGTTTGCCAAACACATCAAC
DNA 2: GTTGATGTGTTTGGCAAACAAGTGCTGATAAACAGCTTTTTA

target: SlbHLH95 (GST fusion) (Solanum lycopersicum, UniProt A0A3Q7IJR5 1-380); assay: EMSA

| Binder | binding result |
| --- | --- |
| B1 | no binding |
| B2 | no binding |
| B3 | binds |
| B4 | no binding |
| B5 | no binding |

Reference: PMC12120882
